The values that follow come from patent US10428149 (dated 2019).

This test has as its target FAP (human, UniProt Q12884). Nature of the test: FACS, HT1080 FAP+ cells. A general note: In flow cytometry, cells or beads pass a laser one at a time.

One may read the EC50 as the midpoint of the concentration-response curve.

Chain of FAP (Q12884 26-760): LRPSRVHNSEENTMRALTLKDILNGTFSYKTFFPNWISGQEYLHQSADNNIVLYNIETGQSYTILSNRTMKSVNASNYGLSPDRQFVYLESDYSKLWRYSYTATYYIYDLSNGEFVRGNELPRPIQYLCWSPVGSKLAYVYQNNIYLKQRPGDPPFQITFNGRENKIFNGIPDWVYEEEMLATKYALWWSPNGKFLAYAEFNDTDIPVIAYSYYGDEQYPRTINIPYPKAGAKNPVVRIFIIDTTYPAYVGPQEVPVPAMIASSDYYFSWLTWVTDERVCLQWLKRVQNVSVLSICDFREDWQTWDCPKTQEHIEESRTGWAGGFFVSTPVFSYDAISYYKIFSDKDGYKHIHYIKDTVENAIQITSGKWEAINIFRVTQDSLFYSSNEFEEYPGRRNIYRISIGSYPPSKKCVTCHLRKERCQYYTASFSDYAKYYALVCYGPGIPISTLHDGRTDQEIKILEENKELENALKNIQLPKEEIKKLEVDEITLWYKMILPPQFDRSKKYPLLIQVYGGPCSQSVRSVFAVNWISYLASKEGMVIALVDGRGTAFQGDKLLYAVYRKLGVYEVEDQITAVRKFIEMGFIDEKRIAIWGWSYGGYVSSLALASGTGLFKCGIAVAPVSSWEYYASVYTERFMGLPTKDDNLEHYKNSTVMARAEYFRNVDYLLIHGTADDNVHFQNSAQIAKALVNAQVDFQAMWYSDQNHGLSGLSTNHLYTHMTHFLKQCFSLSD

B1: Db anti-FAP-Glyco-scTRAIL3-FAVSGAA (antibody)
chain: MDWTWRVFCLLAVAPGAHSLEASDYKDDDDKGTGQVQLVQSGAEVKKPGASVKVSCKASGYTFTENIIHWVRQAPGQGLEWMGWFHPGSGSIKYNEKFKDRVTMTADTSTSTVYMELSSLRSEDTAVYYCARHGGTGRGAMDYWGQGTLVTVSSGGGGSDIQMTQSPSSLSASVGDRVTITCRASKSVSTSAYSYMHWYQQKPGKAPKLLIYLASNLESGVPSRFSGSGSGTDFTLTISSLQPEDFATYYCQHSRELPYTFGQGTKLEIKRAAAGNGTSNGTSEFGGAAAHITGTRGRSNTLSSPNSKNEKALGRKINSWESSRSGHSFLSNLHLRNGELVIHEKGFYYIYSQTYFRFQEEIKENTKNDKQMVQYIYKYTSYPDPILLMKSARNSCWSKDAEYGLYSIYQGGIFELKENDRIFVSVTNEHLIDMDHEASFFGAFAVSGAAAHITGTRGRSNTLSSPNSKNEKALGRKINSWESSRSGHSFLSNLHLRNGELVIHEKGFYYIYSQTYFRFQEEIKENTKNDKQMVQYIYKYTSYPDPILLMKSARNSCWSKDAEYGLYSIYQGGIFELKENDRIFVSVTNEHLIDMDHEASFFGAFAVSGAAAHITGTRGRSNTLSSPNSKNEKALGRKINSWESSRSGHSFLSNLHLRNGELVIHEKGFYYIYSQTYFRFQEEIKENTKNDKQMVQYIYKYTSYPDPILLMKSARNSCWSKDAEYGLYSIYQGGIFELKENDRIFVSVTNEHLIDMDHEASFFGAFAVS
Regarding B1, it took 14 nM to reach a half-maximal effect (EC50).
